{"source": "paper PMC6900184", "about": "“The Escherichia coli MarA protein regulates the ycgZ‐ymgABC operon to inhibit biofilm formation”", "binders": {"B1": {"name": "ycgZ.1m (dsDNA)", "DNA 1": "AATTCATATGCATTACGTCTAATTCGAAAAAATTAATTTATCATTCTGTACACATATTTCGTACAAGTTTGCTATTGTTACTTCACTTAACATTGATTAACATTTTTAACAGAGGCGTAGCATGA", "DNA 2": "AGCTTCATGCTACGCCTCTGTTAAAAATGTTAATCAATGTTAAGTGAAGTAACAATAGCAAACTTGTACGAAATATGTGTACAGAATGATAAATTAATTTTTTCGAATTAGACGTAATGCATATG"}}, "molecular_target": "T1, MarA (Escherichia coli, UniProt P0ACH5 1-127)", "T1 sequence": "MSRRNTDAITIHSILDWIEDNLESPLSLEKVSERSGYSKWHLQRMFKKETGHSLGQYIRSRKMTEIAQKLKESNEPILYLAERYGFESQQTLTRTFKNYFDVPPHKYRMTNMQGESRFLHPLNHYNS", "assay": "EMSA; MarA 0.4, 1.2, 2.0 uM; EMSA: 20 mM Tris pH 7, 10 mM MgCl2, 100 mM EDTA (so in the source), 120 mM KCl; 5% polyacrylamide gel; temperature not stated", "settings": "protein: recombinant; tags: N-terminal His6 tag (pET28a) removed by thrombin; label: 5'-32P; 5' overhang 4 nt at both ends (EcoRI, HindIII)"}
{"binder": "B1", "values": [{"measurement": "binding result", "value": "no binding"}]}
